What follows are molecules tested against cis P-tau (Homo sapiens, UniProt P10636) (assay: Elimination of cis P-tau in cultured neurons stressed by hypoxia). Details: 2.5 μg/ml, 5 μg/ml and 10 μg/ml.
Format: cell-based
Set-up: endogenous in cells
Protocol: (§1) The binding affinity of selected humanized antibody clones was determined by Biacore assay using a wild-type P-tau peptide and its pure cis or cis-locked, and pure trans counterparts. The […] of the selected humanized cis mAb variants was determined by assessing their ability to eliminate cis P-tau in stressed neurons in cell cultures. Functional restoration of selected clones was determined by their ability to restore risk-taking behavior after 3-hit or 7-hit repetitive TBI in mice, as assayed by elevated plus maze.
Cultured neurons were subjected to neuron stress by hypoxia in the presence or absence of different concentration of humanized antibody variants, followed by immunoblotting analysis to analyze cis P-tau levels in the stressed neurons, the results of which are provided in FIGS. 2-4. FIG. 2 is an immunostaining image showing the ability of humanized cis pT231-tau monoclonal antibody variants to eliminate cis P-tau in neurons under hypoxic conditions. Cis P-tau levels are reported in red and blue reports nuclear staining (Hoechst) to represent all neurons in the experiment. […] Cis P-tau levels are reported in red and blue reports nuclear staining (Hoechst) to represent all neurons in the experiment. […] IgG is a negative control. The cis-pTau monoclonal antibody C113 serves as a positive control.

cis P-tau, sequence (P10636 1-441 isoform P10636-8): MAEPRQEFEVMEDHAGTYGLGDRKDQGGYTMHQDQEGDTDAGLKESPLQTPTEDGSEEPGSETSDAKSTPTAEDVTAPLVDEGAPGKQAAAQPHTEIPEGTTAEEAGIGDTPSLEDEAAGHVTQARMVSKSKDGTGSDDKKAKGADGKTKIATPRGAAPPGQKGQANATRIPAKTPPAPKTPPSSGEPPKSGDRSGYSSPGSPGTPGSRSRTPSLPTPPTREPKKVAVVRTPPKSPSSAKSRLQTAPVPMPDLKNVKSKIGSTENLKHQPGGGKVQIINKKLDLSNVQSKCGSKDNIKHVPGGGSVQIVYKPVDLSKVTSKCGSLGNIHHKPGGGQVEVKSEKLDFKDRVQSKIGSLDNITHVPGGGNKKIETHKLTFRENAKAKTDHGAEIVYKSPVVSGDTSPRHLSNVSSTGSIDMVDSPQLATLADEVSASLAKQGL

elimination of cis P-tau in neurons under hypoxic conditions (images)	Molecule
elimination of cis P-tau	C113: previously described murine cis-pTau monoclonal antibody (U.S. Pat. No. 9,688,747); SEQ ID NO: 24 and 15; positive control (antibody, V domains shown, previously described murine cis-pTau monoclonal antibody (U.S. Pat. No. 9,688,747); positive control) VH: QVQLQQPGAELVKPGASVKMSCKASGYTFTSYWIHWVKQRPGQGLEWIGVIDPSDSYTRYNQKFKGKATLTVDTSSSTAYMQLSSLTSEDSAVYYCTTWEVDYWGQGTTLTVSS VL: DVVMTQTPLSLPVSLGDQASISCRSSQSLVHSDGNTYLHWYLQKPGQSPKLLIYKVSNRFSGVPDRFSGSGSGTDFTLKISRLEAEDLGVYFCSQSTHVPWTFGGGTKLEIK
elimination of cis P-tau	HT13: mouse-human chimera control antibody; heavy chain variable domain SEQ ID NO: 24, light chain variable domain SEQ ID NO: 15 (antibody, V domains shown) VH: QVQLQQPGAELVKPGASVKMSCKASGYTFTSYWIHWVKQRPGQGLEWIGVIDPSDSYTRYNQKFKGKATLTVDTSSSTAYMQLSSLTSEDSAVYYCTTWEVDYWGQGTTLTVSS VL: DVVMTQTPLSLPVSLGDQASISCRSSQSLVHSDGNTYLHWYLQKPGQSPKLLIYKVSNRFSGVPDRFSGSGSGTDFTLKISRLEAEDLGVYFCSQSTHVPWTFGGGTKLEIK

These molecules were tested against cis pT231-tau (P-tau peptide, pure cis or cis-locked) (assay: Biacore assay of binding affinity of humanized cis mAb variants). Details: not given.
Excerpt: We next started to characterize and select lead humanized mAbs. We expressed and purified humanized mAb variants using a CHO expression system. We transfected over 45 plasmid DNA pairs of heavy and light chain cDNAs into CHO cells to express over 225 humanized cis mAb variants in various combinations. To evaluate the target binding specificity and affinity of our mouse mAbs, we established a simple and quantitative ELISA to screen the clones using a wild-type P-tau peptide and its pure cis or cis-locked, and pure trans counterparts and determined the binding affinity for selected clones using Biacore assays. We screened over 200 humanized cis mAb variants. […] Furthermore, one-tenth of humanized cis mAb variants were also able to recognize cis P-tau in human AD and TBI brains based on immunostaining analysis.
as §1

Molecule	Kd [nM]
HT11: humanized cis-pThr231-tau mAb; heavy chain variable domain SEQ ID NO: 27, light chain variable domain SEQ ID NO: 19 (antibody, V domains shown) VH: QVQLVQSGAEVKKPGASVKVSCKASGYTFTSYWIHWVRQRPGQGLEWIGVIDPSDSYTRYNQKFKGRVTLTVDTSASTAYMELSSLRSEDTAVYYCTTWEVDYWGQGTLVTVSS VL: DVVMTQSPLSLPVTLGQPASISCRSSQSLVHSDGNTYLHWYLQKPGQSPQLLIYKVSNRFSGVPDRFSGSGSGTDFTLKISRVEAEDVGVYYCSQSTHVPWTFGGGTKVEIK	3.99
HT14: humanized cis-pThr231-tau mAb; heavy chain variable domain SEQ ID NO: 25, light chain variable domain SEQ ID NO: 17 (antibody, V domains shown) VH: QVQLVQSGAELKKPGASVKMSCKASGYTFTSYWIHWVKQRPGQGLEWIGVIDPSDSYTRYNQKFKGRATLTVDTSASTAYMQLSSLTSEDSAVYYCTTWEVDYWGQGTTVTVSS VL: DVVMTQSPLSLPVTLGQPASISCRSSQSLVHSDGNTYLNWYLQKPGQSPQLLIYKVSNRFSGVPDRFSGSGSGTDFTLKISRVEAEDVGVYFCSQSTHVPWTFGGGTKVEIK	30.2
HT15: humanized cis-pThr231-tau mAb; heavy chain variable domain SEQ ID NO: 26, light chain variable domain SEQ ID NO: 17 (antibody, V domains shown) VH: QVQLVQSGAEVKKPGASVKMSCKASGYTFTSYWIHWVKQRPGQGLEWIGVIDPSDSYTRYNQKFKGRATLTVDTSASTAYMELSSLRSEDTAVYYCTTWEVDYWGQGTLVTVSS VL: DVVMTQSPLSLPVTLGQPASISCRSSQSLVHSDGNTYLNWYLQKPGQSPQLLIYKVSNRFSGVPDRFSGSGSGTDFTLKISRVEAEDVGVYFCSQSTHVPWTFGGGTKVEIK	33.4
HT6: humanized cis-pThr231-tau mAb; heavy chain variable domain SEQ ID NO: 26, light chain variable domain SEQ ID NO: 18 (antibody, V domains shown) VH: QVQLVQSGAEVKKPGASVKMSCKASGYTFTSYWIHWVKQRPGQGLEWIGVIDPSDSYTRYNQKFKGRATLTVDTSASTAYMELSSLRSEDTAVYYCTTWEVDYWGQGTLVTVSS VL: DVVMTQSPLSLPVTLGQPASISCRSSQSLVHSDGNTYLHWYLQKPGQSPQLLIYKVSNRDSGVPDRFSGSGSGTDFTLKISRVEAEDVGVYFCSQSTHVPWTFGGGTKVEIK	6.48
HT5: humanized cis-pThr231-tau mAb; heavy chain variable domain SEQ ID NO: 25, light chain variable domain SEQ ID NO: 18 (antibody, V domains shown) VH: QVQLVQSGAELKKPGASVKMSCKASGYTFTSYWIHWVKQRPGQGLEWIGVIDPSDSYTRYNQKFKGRATLTVDTSASTAYMQLSSLTSEDSAVYYCTTWEVDYWGQGTTVTVSS VL: DVVMTQSPLSLPVTLGQPASISCRSSQSLVHSDGNTYLHWYLQKPGQSPQLLIYKVSNRDSGVPDRFSGSGSGTDFTLKISRVEAEDVGVYFCSQSTHVPWTFGGGTKVEIK	6.91
HT7: humanized cis-pThr231-tau mAb; heavy chain variable domain SEQ ID NO: 27, light chain variable domain SEQ ID NO: 18 (antibody, V domains shown) VH: QVQLVQSGAEVKKPGASVKVSCKASGYTFTSYWIHWVRQRPGQGLEWIGVIDPSDSYTRYNQKFKGRVTLTVDTSASTAYMELSSLRSEDTAVYYCTTWEVDYWGQGTLVTVSS VL: DVVMTQSPLSLPVTLGQPASISCRSSQSLVHSDGNTYLHWYLQKPGQSPQLLIYKVSNRDSGVPDRFSGSGSGTDFTLKISRVEAEDVGVYFCSQSTHVPWTFGGGTKVEIK	10.8
HT17: humanized cis-pThr231-tau mAb; heavy chain variable domain SEQ ID NO: 28, light chain variable domain SEQ ID NO: 17 (antibody, V domains shown) VH: QVQLVQSGAEVKKPGASVKVSCKASGYTFTSYWIHWVRQRPGQGLEWIGVIDPSDSYTRYNQKFKGRVTITRDTSASTAYMELSSLRSEDTAVYYCTTWEVDYWGQGTLVTVSS VL: DVVMTQSPLSLPVTLGQPASISCRSSQSLVHSDGNTYLNWYLQKPGQSPQLLIYKVSNRFSGVPDRFSGSGSGTDFTLKISRVEAEDVGVYFCSQSTHVPWTFGGGTKVEIK	4940

Further lines, results first:

Kd [nM]	Molecule
3.26	HT16: humanized cis-pThr231-tau mAb; heavy chain variable domain SEQ ID NO: 27, light chain variable domain SEQ ID NO: 17 (antibody, V domains shown) VH: QVQLVQSGAEVKKPGASVKVSCKASGYTFTSYWIHWVRQRPGQGLEWIGVIDPSDSYTRYNQKFKGRVTLTVDTSASTAYMELSSLRSEDTAVYYCTTWEVDYWGQGTLVTVSS VL: DVVMTQSPLSLPVTLGQPASISCRSSQSLVHSDGNTYLNWYLQKPGQSPQLLIYKVSNRFSGVPDRFSGSGSGTDFTLKISRVEAEDVGVYFCSQSTHVPWTFGGGTKVEIK
1.26	HT13: mouse-human chimera control antibody; heavy chain variable domain SEQ ID NO: 24, light chain variable domain SEQ ID NO: 15 (antibody, V domains shown) VH: QVQLQQPGAELVKPGASVKMSCKASGYTFTSYWIHWVKQRPGQGLEWIGVIDPSDSYTRYNQKFKGKATLTVDTSSSTAYMQLSSLTSEDSAVYYCTTWEVDYWGQGTTLTVSS VL: DVVMTQTPLSLPVSLGDQASISCRSSQSLVHSDGNTYLHWYLQKPGQSPKLLIYKVSNRFSGVPDRFSGSGSGTDFTLKISRLEAEDLGVYFCSQSTHVPWTFGGGTKLEIK
2.42	HT4: humanized cis-pThr231-tau mAb; heavy chain variable domain SEQ ID NO: 28, light chain variable domain SEQ ID NO: 16 (antibody, V domains shown) VH: QVQLVQSGAEVKKPGASVKVSCKASGYTFTSYWIHWVRQRPGQGLEWIGVIDPSDSYTRYNQKFKGRVTITRDTSASTAYMELSSLRSEDTAVYYCTTWEVDYWGQGTLVTVSS VL: DVVMTQSPLSLPVTLGQPASISCRSSQSLVHSDGNTYLHWYLQKPGQSPQLLIYKVSNRFSGVPDRFSGSGSGTDFTLKISRVEAEDVGVYFCSQSTHVPWTFGGGTKVEIK
1.89	HT9: humanized cis-pThr231-tau mAb; heavy chain variable domain SEQ ID NO: 25, light chain variable domain SEQ ID NO: 19 (antibody, V domains shown) VH: QVQLVQSGAELKKPGASVKMSCKASGYTFTSYWIHWVKQRPGQGLEWIGVIDPSDSYTRYNQKFKGRATLTVDTSASTAYMQLSSLTSEDSAVYYCTTWEVDYWGQGTTVTVSS VL: DVVMTQSPLSLPVTLGQPASISCRSSQSLVHSDGNTYLHWYLQKPGQSPQLLIYKVSNRFSGVPDRFSGSGSGTDFTLKISRVEAEDVGVYYCSQSTHVPWTFGGGTKVEIK
3.55	HT12: humanized cis-pThr231-tau mAb; heavy chain variable domain SEQ ID NO: 28, light chain variable domain SEQ ID NO: 19 (antibody, V domains shown) VH: QVQLVQSGAEVKKPGASVKVSCKASGYTFTSYWIHWVRQRPGQGLEWIGVIDPSDSYTRYNQKFKGRVTITRDTSASTAYMELSSLRSEDTAVYYCTTWEVDYWGQGTLVTVSS VL: DVVMTQSPLSLPVTLGQPASISCRSSQSLVHSDGNTYLHWYLQKPGQSPQLLIYKVSNRFSGVPDRFSGSGSGTDFTLKISRVEAEDVGVYYCSQSTHVPWTFGGGTKVEIK
